19 sequences from the DeepSol protein solubility set can be followed below.

This data set can be described thus: soluble on expression in E. coli; label from the status in PepcDB or PDB records.
Take “MGSDKIHHHHHHMNILIKIRELTNLTNSEKELANYIVVNPKKTLQFKPKELAQAAFVSAATIYRLINKLGLNGIGELKIEIASSLRETNEEKEINYDYPILESDTPYQIMTNLNQIYKGTIDETLNNADPEELVKIGEKLIKAKTIDVYAASANLFFAQNFKFQMQEIGVLVNVPEEDYIQSLSAANSDKDHIAIVVSYGGRSRTLQRVVKILSENDVDIILITSMQANPLVEFATHKIYMASAENHYNKVSSFSTRQSLLSIFDTLYSVYFNHDYEKNIQYKTTNYQKMNSELE”: the “soluble on expression in E. coli” value is given as “not soluble”.

Consider “MGSDKIHHHHHHMLHYTKEDLLELGAEITTREIYQQPDVWREAFEFYQAKREEIAAFLQEIADKHDYIKVILTGAGTSAYVGDTLLPYFKEVYDERKWNFNAIATTDIVANPATYLKKDVATVLVSFARSGNSPESLATVDLAKSLVDELYQVTITCAADGKLALQAHGDDRNLLLLQPAVSNDAGFAMTSSFTSMMLTTLLVFDPTEFAVKSERFEVVSSLARKVLDKAEDVKELVDLDFNRVIYLGAGPFFGLAHEAQLKILELTAGQVATMYESPVGFRHGPKSLINDNTVVLVFGTTTDYTRKYDLDLVREVAGDQIARRVVLLSDQAFGLENVKEVALGCGGVLNDIYRVFPYIVYAQLFALLTSLKVENKPDTPSPTGTVNRVVQGVIIHEYQK”, for which the “soluble on expression in E. coli” value is given as “not soluble”.

With “MSLLTLAFNPQPRAKTYCSGPILRVSGVWAVKILYIVLDGAADSPTSPRKTLEEASKPNIDSLGSHAVCGMVYTVKPGVAPQSDYATLSLLGYNPDEYYPGRGPLEAFGAGIEMRRGDIALRANFATVDPGTLRIIDRRVGRSLTSREARELASAVDGMELEDGEGTALFRATIGHRGVLVLRHRSKPLSDAISNTDPAYERRGRFSVALEKYEPFIKLSNPLVEDEAAVLAARMLNEFTLKAVEILDSHPVNLAREKRGLLKANAILSRDAGGLPEEKPPSFQERFGLRGASIVEMVVERGISRYIGLDDIRVEIEGRAREEVYREEAARAVEALETHDLVYVHLKGPDEPGHDGSFEGKIRAVEDIDKHFFAPLLDRLSSAGLEPAFVVTSDHATPWDVGAHSGDPVPLMISHQSIQGSIGKFSETVCLRGRLGTIIGGYRIIPKTLSLLAGLEHHHHHH”, the “soluble on expression in E. coli” value is given as “soluble”.

As for “MTQPLVGKQILIVEDEQVFRSLLDSWFSSLGATTVLAADGVDALELLGGFTPDLMICDIAMPRMNGLKLLEHIRNRGDQTPVLVISATENMADIAKALRLGVEDVLLKPVKDLNRLREMVFACLYPSMFN”, the “soluble on expression in E. coli” value is “soluble”.

Consider “GPLGSMKLRVENPKKAQKHFVQNLNNVVFTNKELEDIYNLSNKEETKEVLKLFKLKVNQFYRHAFGIVNDYNGLLEYKEIFNMMFLKLSVVFDTQRKEANNVEQIKRNIAILDEIMAKADNDLSYFISQNKNFQELWDKAVKLTKEMKIKLKGQKLDLRDGEVAINKVRELFGSDKNVKELWWFRSLLVKGVYLIKRYYEGDIELATTSDFAKAVFE”, for which the “soluble on expression in E. coli” value is given as “soluble”.

With “MGSDKIHHHHHHMDVANKIKVIDRLRLGFAVLVAKSVTFLVRSLRLGAASVLPGSIARRIEPRLLQLLSQQVQNGVIIIAGTNGKTTTALLLCTILENKGYRVCHNSTGANLENGLMTALLDSTNLVGTLDVDYAILEVDENIVPRVLKPLQPRIILCLNLFRDQLDRYGEVDTISKRWTKVISTLPRETVVIPNADDPTLSLLGQQLPQKVLFFGLNEPEHYLEAIPHAVDSIYCPQCGHSLDYQGVYLSHLGDFTCPSCGFTKSQPTLASREWSQILVGLYNKYNTLAATTAAIELGVDETTIRDTINNFQAAFGRAEDLVIDGKRVRILLSKNPVGTNETIRVVTQSTDKTTLLVLNDRTPDGTDVSWIWDVDTEKLVERGGTLVVSGDRVYDMALRLRYSEKSAQSNLNLIVEADLRQAIATALEHTPATETLHILPTYSAMLEVREVLTGRKIL”, the “soluble on expression in E. coli” value was “not soluble”.

As for “MAHHHHHHMLTNLRFLELQKLLLKRFQIFKNEEITILKKDSMKTILNEWAEFLTKEQKGTNITHIPDEVLQNKKVADILRDDIECRWLVGRINVGNNQESPVGTNDVNSSCSAALARKGTALSKIDQLHFDEYPNLFHYEYPQFPYNYYDKKKMENFYSLLKFPYNDILKISKMIKRDVISPSGNAEEGEILQQGGKAQSEVLESTHVDVVNDDFMNYSSNSYVYAPSEMETSKENYHE”, the “soluble on expression in E. coli” value is reported as “not soluble”.

On to “MGGITMTAVVSNRDKINFHEVADHYHSNKIIFGIKFLKNWALERLASCAPVPSWRAKLHKMRGVNIGENVYIGYDVIFDRIHPEMITVGDYAEIGDRCILSAHSRGSLTTRQAYPRSIAPIKIGRGVSVNPGCIITQGVEIGDNSIIGVGSVVSRNISPNSLALGYPAKVIKKLDG”, for which the “soluble on expression in E. coli” value is given as “soluble”.

Turning to “MEARFAELLAAYCLEAQSGETVLVEAETPALPLLPHLKRALLRRGAYPLIRLSYPGEERDFLLFGGRWLEEVPEAELALYQRADKFLRVLSAENPLEAAAVDPALALRRQRAWRLLQEIRLGKRWALTLYPTVGYAVGAGMGTEEFRAYLERALFLDREDPVAAWQELSRFQEGLIRRLSAAKELRILAPGTDLRLSVAGRTWVNSDGRRNMPSGEVFTGPVEDSAEGEVRFNLPAFVGGRRVKGVYLRFARGQVVKARAKAGKAYLQAALATDEGARRLGEVGIGTNFALDRPTGLVLLDEKMGGTVHLALGRSYPEAGGRNESALHWDLVLSLREGRLLLDGTPLLEAGRFL”, the “soluble on expression in E. coli” value is reported as “soluble”.

For the sequence “MPPCYPFMLSWKGWARDSPGRPGGAMRAHIITYGCQMNEYDSHLVASELVSLGWELVDSVEEADFVLVNTCAVRGKPVEKVRSLLGQLRKEKERRGLLIGMMGCLAQLDEGQQMAKKFGVDVLLGPGALTSLPEALKANERFWDLTFREDVLDYIPPPPKGALSAHVTIIRGCNHHCTYCIVPTTRGPEVSRHPDLILKEIELLKQAGVVEVTLLGQNVNSYGKDQPGFPSFAELLRMVGGMGIPRVRFLTSHPVNFTDDIIEAIAETPAICRYIHLPVQSGSDRVLRRMAREYRRAHYLERIRKIREALPDAVLSTDIIVGFPGETEEDFQETLSLYDEVGYDQAYMFIYSPRPGTPAYKHFQDLPREVKVERLMRLIEKQKEWSYRRNLEWVGKTVEVLVRGEAKEEGFVQGHDRGNHPVLVPASQAPVPGLYQVEIKQATPHLLFGEVVGAEAPAPIPLPVA”, the “soluble on expression in E. coli” value is on record as “soluble”.

As to “MKTLTTERLILRLVSVDDAPFILELYNHPDFYRFVGDKQMRTDYEAVRYIKENMLRMEEKKGVSLLVVEDKQTKQPLGICGLVKRDTLNAYDIGYGFLPSAYGQGFAIEAAKAVIEYAKQAMQLSQLLAITNNDNIRSISLLKKLGFEFEHVEQQYDNGRTLELYTLQL”, the “soluble on expression in E. coli” value is recorded as “not soluble”.

As to “MIYPLPAILVSCGKDESEYNIITVAWTGTICTNPPMCYISVRPERHSYDIIKKNMEFVINLTTKDMAFPTDWCGVRSGRNYRKFEEMKLTPGRCTVVSAPLIEESPLCIECRVKEIVSLGSHDMFIADVVNVRADDRNLNPETGKFELAEANPLVYVHGGYYDLGEKIGKFGWSVEKKK”, the “soluble on expression in E. coli” value is on record as “not soluble”.

Turning to “MLASMTGYAAVSREIPQGSLALELRSVNNRYLDLQFRLPDELRALESEMRDFLGSGLTRGKVDCRLTFSSYSNSYRQQRLNRDLLQDLQIMSDEIKSIFPAAGDFSVAEILRWPGVLDSDHISIDDLRTPCMALLQTALQELVSARKREGEKLHNLLLERVQRMRQLVLDLLPGLPAILASFQERLLNSLKAAGLDEKDERIRQEFTLFANRVDVDEELSRLQGHLNEFEHILLAGGVVGKRLDFLTQELNREANTLASKSVAREVTRIAVEMKVLIEQLREQIQNIE”, the “soluble on expression in E. coli” value was “not soluble”.

As for “MLGSRNIKFSVQIFKKRRSNCNVRCVVCGREIETGSLCGKCMVEKEEVAKIDEFEITVCSRCNLIRLGNRWVERSVEEVIEEMVLRNARVVEEFNVTEVAISQEHCVFRGEISGDEVKILVPLKYRINKVLCEKCSREAGGYYESIVQLRAAGRELSDEEIEKALEIVDEVISSAPEDQKAFISKLERKREGVNIFFGSRNIGKKVSRMIMKKLGGSITESKKLHTRIDGRDVYRFTYSVKLPEYREGDIVEKEGRFAVVRNSVAGKGLDILTGKTVNLGNERVAVRREDLKSGVVVNADPNAVEVVCEDGRLVTTPKPSGAEIGAEVKVFEINGKFFSVYEGGQSSEELEHHHHHH”, the “soluble on expression in E. coli” value was “soluble”.

On to “MAFGVLALVHTACENAKYDVIDNLVYINEASTSKTKELTLTEGTTRTSLTVRLVNIINQTIKANLFIDESVLDAYNKKNETNYKMPPKEYISFPESVTIEAGSVSADPVNVDIKSFEAEGGAQYAIPISIKNVEGGIEKSESSSSFLLVLVKPLKQAVPKLTWYNGMHAAPEGAWGLALPNYTLEWWSKVTSKSGNGGYTKNNQAIINSGGLGTELYIRFGDLIYSENGSYKNNFLQVKTMGSQFDTGDPTKGKGLEAQKWYHFAVSYDAASGTTLLYQNGTVVASLSSSIGQPMNIDQFQMISSGEEYFPDFCEMCQVRFWKVTRTVNQIKKSMYTEVDYTDKNLLLYLPMNEGEGATILHDVTGNGHDVEIGNSNLGNENRQKVTWETYSFAQ”, for which the “soluble on expression in E. coli” value is reported as “not soluble”.

Regarding “MGSDKIHHHHHHMIRSTLSSWREYLTPITHKSTFLTTGQITPEEFVQAGDYLCHMFPTWKWNEESSDISYRDFLPKNKQFLIIRKVPCDKRAEQCVEVEGPDVIMKGFAEDGDEDDVLEYIGSETEHVQSTPAGGTKDSSIDDIDELIQDMEIKEEDENDDTEEFNAKGGLAKDMAQERYYDLYIAYSTSYRVPKMYIVGFNSNGSPLSPEQMFEDISADYRTKTATIEKLPFYKNSVLSVSIHPCKHANVMKILLDKVRVVRQRRRKELQEEQELDGVGDWEDLQDDIDDSLRVDQYLIVFLKFITSVTPSIQHDYTMEGW”, the “soluble on expression in E. coli” value is reported as “not soluble”.

Take “MSLADLTFPSLSYRTGPYAAGGIPFADGYADYFTLLNERDGGIGGVKANVLECETGYNTEKGVECYESTKGQGALVYQPLSTGITYQLIPKATADGIAIHSMGYGRTSAKNGNVFSHVFNYPANYWDGASGAVNYLLEINGGDIKGKKIALVYHNSAYGKEPIRTLEELSKKHGFDLSTLPVDHPGQEQKSQWLQIRRDKPDYVLMWGWGVMNQVAVQEAANIRFPMENFIGIWWSGSENDVLPAGDAANGYKALTFHNVGTAFPLFDDLQKYVIDAGKAAGAGDQVGTVLYNRGLYAAMLAAEAAKKAQEISGKADITAADMRDGMEALEMTEAKMAELGLPNFGPTFSVSCGNHGGDALVGVTQWDATSKTWSLISDFKPTDGDVIGALIEEDSSAYASENNISPRCNEGHHHHHH”: the “soluble on expression in E. coli” value was “soluble”.

“GPGSMNYEGHLKGHRGWVTSLACPQQAGSYIKVVSTSRDGTAISWKANPDRHSVDSDYGLPNHRLEGHTGFVSCVSLAHATDYALTASWDRSIRMWDLRNGQCQRKFLKHTKDVLAVAFSPDDRLIVSAGRDNVIRVWNVAGECMHEFLRDGHEDWVSSICFSPSLEHPIVVSGSWDNTIKVWNVNGGKCERTLKGHSNYVSTVTVSPDGSLCASGGKDGAALLWDLSTGEQLFKINVESPINQIAFSPNRFWMCVATERSLSVYDLESKAVIAELTPDGAKPSECISIAWSADGNTLYSGHKDNLIRVWSISDAE”: the “soluble on expression in E. coli” value is “soluble”.

For “MKKETKPRVVVIGGGTGLPVILKGLKKKDIHLTAIVTVADDGGSSGKIREQMDVLPPGDIRNVMLALSNVDPRVVDLFQYRFAVDGDLSGHVIGNLILTALSQLNDSYVDAINVLATVLKIRGKVIPATDQPLILNAEMEDGSIVHGESLIPLQGKHINRVYIEPENVKPYPTAVEAVKEADLIVIGPGSLYTSILPNLLLTELADEITASKAPKVYITNILTQIGETDFFSDADHIKVIHEHVGKSFIDKTLINTTTVPKELLFPEDVAQVEHNAKGMEELGVEAIYQDFLSTEDGLVRHAAEKVADALLAMLPNQTNEKELEHHHHHH”, the “soluble on expression in E. coli” value is listed as “soluble”.
